Data reported in paper PMC2140218.
Read-outs that look alike come from different tables or passages of the source.

Columns and labels:
[1] = biological target: taxol-stabilized bovine brain microtubules (bovine) (UniProt Q6B856); assay: co-sedimentation
[2] = biological target: taxol-stabilized bovine brain microtubules (bovine) (UniProt Q6B856); assay: co-sedimentation; remark: listed apart in the source

B1: Stu2p C657 (domain or fragment)
chain: MSGEEEVDYTTLPLEERLTYKLWKARLEAYKELNQLFRNSVGDISRDDNIQIYWRDPTLFAQYITDSNVVAQEQAIVALNSLIDAFASSSLKNAHNITLISTWTPLLVEKGLTSSRATTKTQSMSCILSLCGLDTSITQSVELVIPFFEKKLPKLIAAAANCVYELMAAFGLTNVNVQTFLPELLKHVPQLAGHGDRNVRSQTMNLIVEIYKVTGNNSDLLEEILFKKLKPIQVKDLHKLFAKVGDEPSSSKMLFEWEKRELEKKRSQEEEARKRKSILSNDEGEYQIDKDGDTLMGMETDMPPSKQQSGVQIDTFSMLPEETILDKLPKDFQERITSSKWKDRVEALEEFWDSVLSQTKKLKSTSQNYSNLLGIYGHIIQKDANIQAVALAAQSVELICDKLKTPGFSKDYVSLVFTPLLDRTKEKKPSVIEAIRKALLTICKYYDPLASSGRNEDMLKDILEHMKHKTPQIRMECTQLFNASMKEEKDGYSTLQRYLKDEVVPIVIQIVNDTQPAIRTIGFESFAILIKIFGMNTFVKTLEHLDNLKRKKIEETVKTLPNFSIASGSTHSTIETNKQTGPMENKFLLKKSSVLPSKRVASSPLRNDNKSKVNPIGSVASASKPSMVAANNKSRVLLTSKSLATPKNVVANSTDKN
modifications: [35S]methionine label
[1]
  fold higher Kd than full length Stu2p: 1.6 fold

B2: Stu2p N612 (domain or fragment)
chain: KVNPIGSVASASKPSMVAANNKSRVLLTSKSLATPKNVVANSTDKNEKLIEEYKYRLQKLQNDEMIWTKERQSLLEKMNNTENYKIEMIKENEMLREQLKEAQSKLNEKNIQLRSKEIDVNKLSDRVLSLENELRNMEIELDRNKKRNDTNLQSMGTISSYSIPSSTVSSNYGVKSLSSALPFKEEEDVRRKEDVNYERRSSESIGDLPHRVNSLNIRPYRKNGTGVSSVSDDLDIDFNDSFASEESYKRAAAVTSTLKARIEKMKAKSRREGTTRT
modifications: [35S]methionine label
[1]
  fold higher Kd than full length Stu2p: 3.5 fold

B3: Stu2p N558 (domain or fragment)
chain: KTLPNFSIASGSTHSTIETNKQTGPMENKFLLKKSSVLPSKRVASSPLRNDNKSKVNPIGSVASASKPSMVAANNKSRVLLTSKSLATPKNVVANSTDKNEKLIEEYKYRLQKLQNDEMIWTKERQSLLEKMNNTENYKIEMIKENEMLREQLKEAQSKLNEKNIQLRSKEIDVNKLSDRVLSLENELRNMEIELDRNKKRNDTNLQSMGTISSYSIPSSTVSSNYGVKSLSSALPFKEEEDVRRKEDVNYERRSSESIGDLPHRVNSLNIRPYRKNGTGVSSVSDDLDIDFNDSFASEESYKRAAAVTSTLKARIEKMKAKSRREGTTRT
modifications: [35S]methionine label
[1]
  fold higher Kd than full length Stu2p: 1.4 fold

B4: Stu2p (natural protein)
chain: MSGEEEVDYTTLPLEERLTYKLWKARLEAYKELNQLFRNSVGDISRDDNIQIYWRDPTLFAQYITDSNVVAQEQAIVALNSLIDAFASSSLKNAHNITLISTWTPLLVEKGLTSSRATTKTQSMSCILSLCGLDTSITQSVELVIPFFEKKLPKLIAAAANCVYELMAAFGLTNVNVQTFLPELLKHVPQLAGHGDRNVRSQTMNLIVEIYKVTGNNSDLLEEILFKKLKPIQVKDLHKLFAKVGDEPSSSKMLFEWEKRELEKKRSQEEEARKRKSILSNDEGEYQIDKDGDTLMGMETDMPPSKQQSGVQIDTFSMLPEETILDKLPKDFQERITSSKWKDRVEALEEFWDSVLSQTKKLKSTSQNYSNLLGIYGHIIQKDANIQAVALAAQSVELICDKLKTPGFSKDYVSLVFTPLLDRTKEKKPSVIEAIRKALLTICKYYDPLASSGRNEDMLKDILEHMKHKTPQIRMECTQLFNASMKEEKDGYSTLQRYLKDEVVPIVIQIVNDTQPAIRTIGFESFAILIKIFGMNTFVKTLEHLDNLKRKKIEETVKTLPNFSIASGSTHSTIETNKQTGPMENKFLLKKSSVLPSKRVASSPLRNDNKSKVNPIGSVASASKPSMVAANNKSRVLLTSKSLATPKNVVANSTDKNEKLIEEYKYRLQKLQNDEMIWTKERQSLLEKMNNTENYKIEMIKENEMLREQLKEAQSKLNEKNIQLRSKEIDVNKLSDRVLSLENELRNMEIELDRNKKRNDTNLQSMGTISSYSIPSSTVSSNYGVKSLSSALPFKEEEDVRRKEDVNYERRSSESIGDLPHRVNSLNIRPYRKNGTGVSSVSDDLDIDFNDSFASEESYKRAAAVTSTLKARIEKMKAKSRREGTTRT
modifications: [35S]methionine label
[1]
  Kd: 540 nM
[2]
  Kd: 560 nM

B5: Stu2p N658 (domain or fragment)
chain: EKLIEEYKYRLQKLQNDEMIWTKERQSLLEKMNNTENYKIEMIKENEMLREQLKEAQSKLNEKNIQLRSKEIDVNKLSDRVLSLENELRNMEIELDRNKKRNDTNLQSMGTISSYSIPSSTVSSNYGVKSLSSALPFKEEEDVRRKEDVNYERRSSESIGDLPHRVNSLNIRPYRKNGTGVSSVSDDLDIDFNDSFASEESYKRAAAVTSTLKARIEKMKAKSRREGTTRT
modifications: [35S]methionine label
[1]
  fold higher Kd than full length Stu2p: > 50 fold

B6: Stu2p C611 (domain or fragment)
chain: MSGEEEVDYTTLPLEERLTYKLWKARLEAYKELNQLFRNSVGDISRDDNIQIYWRDPTLFAQYITDSNVVAQEQAIVALNSLIDAFASSSLKNAHNITLISTWTPLLVEKGLTSSRATTKTQSMSCILSLCGLDTSITQSVELVIPFFEKKLPKLIAAAANCVYELMAAFGLTNVNVQTFLPELLKHVPQLAGHGDRNVRSQTMNLIVEIYKVTGNNSDLLEEILFKKLKPIQVKDLHKLFAKVGDEPSSSKMLFEWEKRELEKKRSQEEEARKRKSILSNDEGEYQIDKDGDTLMGMETDMPPSKQQSGVQIDTFSMLPEETILDKLPKDFQERITSSKWKDRVEALEEFWDSVLSQTKKLKSTSQNYSNLLGIYGHIIQKDANIQAVALAAQSVELICDKLKTPGFSKDYVSLVFTPLLDRTKEKKPSVIEAIRKALLTICKYYDPLASSGRNEDMLKDILEHMKHKTPQIRMECTQLFNASMKEEKDGYSTLQRYLKDEVVPIVIQIVNDTQPAIRTIGFESFAILIKIFGMNTFVKTLEHLDNLKRKKIEETVKTLPNFSIASGSTHSTIETNKQTGPMENKFLLKKSSVLPSKRVASSPLRNDNKS
modifications: [35S]methionine label
[1]
  fold higher Kd than full length Stu2p: 6 fold

B7: Stu2p C557 (domain or fragment)
chain: MSGEEEVDYTTLPLEERLTYKLWKARLEAYKELNQLFRNSVGDISRDDNIQIYWRDPTLFAQYITDSNVVAQEQAIVALNSLIDAFASSSLKNAHNITLISTWTPLLVEKGLTSSRATTKTQSMSCILSLCGLDTSITQSVELVIPFFEKKLPKLIAAAANCVYELMAAFGLTNVNVQTFLPELLKHVPQLAGHGDRNVRSQTMNLIVEIYKVTGNNSDLLEEILFKKLKPIQVKDLHKLFAKVGDEPSSSKMLFEWEKRELEKKRSQEEEARKRKSILSNDEGEYQIDKDGDTLMGMETDMPPSKQQSGVQIDTFSMLPEETILDKLPKDFQERITSSKWKDRVEALEEFWDSVLSQTKKLKSTSQNYSNLLGIYGHIIQKDANIQAVALAAQSVELICDKLKTPGFSKDYVSLVFTPLLDRTKEKKPSVIEAIRKALLTICKYYDPLASSGRNEDMLKDILEHMKHKTPQIRMECTQLFNASMKEEKDGYSTLQRYLKDEVVPIVIQIVNDTQPAIRTIGFESFAILIKIFGMNTFVKTLEHLDNLKRKKIEETV
modifications: [35S]methionine label
[1]
  fold higher Kd than full length Stu2p: 30 fold
